Common to all, as to experiment: IEDB peptide-MHC binding, purified MHC/competitive/radioactivity; filed as Kd, often an IC50 or EC50 that approximates it; ≥ and ≤ were set here for values at or beyond the usual limits of such assays
The target of assay [1] is HLA-A*02:03.
In assay [2] the target is HLA-A*02:06.
Assay [3] deals with HLA-A*02:02.
Setting [4] is: source organism: Vaccinia virus WR.
The mark [5] stands for this setting: source organism: SARS coronavirus Tor2.
The mark [6] stands for this setting: source organism: Mammarenavirus brazilense.

What is called Kd is the free concentration of one partner at which half of the binding sites on the other are occupied at equilibrium, for simple one-to-one binding.

QLLKILDNL: the results for the Kd in assay [1] (setting [4]), in assay [2] (setting [4]) and in assay [3] (setting [4]) were 319 nM, 135 nM and 227 nM, respectively.
In the same order, the values of FITVLTSVDI are 237 nM, 1270 nM and 1420 nM.
IIFWFSLEI: the Kd in assay [1] (setting [5]) was 87 nM; in assay [2] (setting [5]), 4.64 nM; in assay [3] (setting [5]), 1.75 nM.
On to VTFINDYANL, for which the dissociation constant (Kd) in assay [1] (setting [4]) worked out at 247 nM; in assay [2] (setting [4]) it was 148 nM; in assay [3] (setting [4]), 99.1 nM.
In the same order, the values of IVDSMIIGHI are 208 nM, 561 nM and 507 nM.
As for IASAPQQLCT, the Kd in assay [1] (setting [4]) is ≥ 70400 nM; in assay [2] (setting [4]) it was 8320 nM; in assay [3] (setting [4]) it was ≥ 53200 nM.
The like results for DVIKSISSI were, in that order, 7520 nM, 15000 nM and ≥ 63800 nM.
In the same order, the values of IIYSKAGNI are 12.6 nM, 13700 nM and 9760 nM.
Regarding HTNHSDISM, the Kd in assay [1] (setting [4]) amounted to 4140 nM; in assay [2] (setting [4]), 1200 nM; in assay [3] (setting [4]), 8810 nM.
As to SLPSYAAYA, the dissociation constant (Kd) in assay [1] (setting [5]) was 2.56 nM; in assay [2] (setting [5]), 8.72 nM; in assay [3] (setting [5]) it was 6.68 nM.
Take YLYNKYSFKL: the figures for the dissociation constant Kd in assay [1] (setting [4]), in assay [2] (setting [4]) and in assay [3] (setting [4]) were 0.0349 nM, 0.14 nM and 0.109 nM, respectively.
Turning to LLPDALLFTL, the equilibrium dissociation constant (Kd) in assay [1] (setting [6]) worked out at 732 nM; in assay [2] (setting [6]), 78.9 nM; in assay [3] (setting [6]) it was 4.72 nM.
As for KQYDSTDFKM, the dissociation constant (Kd) in assay [1] (setting [4]) was 3270 nM; in assay [2] (setting [4]) it was 107 nM; in assay [3] (setting [4]), 8.38 nM.
Turning to EIRGVLPEET, the dissociation constant (Kd) in assay [1] (setting [4]) was 4870 nM; in assay [2] (setting [4]), ≥ 20100 nM; in assay [3] (setting [4]), 9600 nM.
In the case of ALLADKFPV, the dissociation constant Kd in assay [1] (setting [5]) turned out to be 604 nM; in assay [2] (setting [5]), 22.8 nM; in assay [3] (setting [5]), 29.1 nM.
In the case of STKADAVVA, the figures for the Kd in assay [1] (setting [4]), in assay [2] (setting [4]) and in assay [3] (setting [4]) were 4950 nM, 16200 nM and 8190 nM, respectively.
Regarding IMECSRMLDT, the Kd was 7200 nM in assay [1] (setting [4]), ≥ 69800 nM in assay [2] (setting [4]) and 5240 nM in assay [3] (setting [4]).
For KLIEYSDFA, the Kd turned out to be 0.534 nM in assay [1] (setting [5]), 0.705 nM in assay [2] (setting [5]) and 0.0948 nM in assay [3] (setting [5]).
Take VTKSSSWKDV: the results for the Kd in assay [1] (setting [4]), in assay [2] (setting [4]) and in assay [3] (setting [4]) were ≥ 41900 nM, ≥ 69800 nM and ≥ 70000 nM, respectively.
Regarding NTTTFITVLT, the Kd in assay [1] (setting [4]) is 596 nM; in assay [2] (setting [4]) it was 600 nM; in assay [3] (setting [4]), 1960 nM.
In the same order, the values of EVERLMELPV are 1430 nM, 3630 nM and 2460 nM.
Regarding MSPALFFTFL, the Kd in assay [1] (setting [6]) came out at 7630 nM; in assay [2] (setting [6]), 834 nM; in assay [3] (setting [6]) it was 546 nM.
As to RLRQDTEDIV, the Kd in assay [1] (setting [4]) was found to be 284 nM; in assay [2] (setting [4]) it was 7490 nM; in assay [3] (setting [4]), 134 nM.
In the case of IVAIDLDPV, the Kd in assay [2] (source organism: Dengue virus 1 Brazil/97-11/1997) was 11.2 nM.
For ALVFLILCFT, the figures for the dissociation constant (Kd) in assay [1] (setting [5]), in assay [2] (setting [5]) and in assay [3] (setting [5]) were 1120 nM, 229 nM and 209 nM, respectively.
As to FTDCRTIDA, the Kd was determined as 2680 nM in assay [1] (setting [4]), 2710 nM in assay [2] (setting [4]) and 10900 nM in assay [3] (setting [4]).
In the same order, the values of IVVALSSLV are 3.85 nM, 8.23 nM and 26.7 nM.
In the same order, the values of ETLPELNLSL are 130 nM, 134 nM and 52.3 nM.
In the same order, the values of NMCNSDVSV are 30.3 nM, 97 nM and 80 nM.
Regarding LLEQLIENI, the results for the equilibrium dissociation constant (Kd) in assay [1] (setting [4]), in assay [2] (setting [4]) and in assay [3] (setting [4]) were 1960 nM, 539 nM and 702 nM, respectively.

For the origin of these results see the Immune Epitope Database (IEDB).
